{"source": "patent US20230355711A1", "target": "recombinant SARS-CoV-2 spike protein (S1S2ECD-His; Sino Biological) (SARS-CoV-2) (UniProt P0DTC2)", "note": "pKd: −log10 of the molar value.", "data": [{"substance": "heat-inactivated recombinant human rod domain of vimentin (ΔrhRod) (from UniProt P08670 96-407)", "values": [{"measurement": "pKd", "value": 5.96}]}]}
